Reference: publication PMC7058617 (Signal Transduction and Targeted Therapy, 2020)

How the values were obtained:
[1] = biological target: PD-L1 extracellular domain (PD-L1-ECD) (UniProt Q9NZQ7); assay: SPR; conditions: bispecific antibody
[2] = biological target: human CD47 extracellular domain (CD47-ECD) (human) (UniProt Q08722); assay: SPR; conditions: bispecific antibody
[3] = biological target: T1, human CD47 extracellular domain (CD47-ECD) (human, UniProt Q08722, N-linked glycosylation observed at all five potential sites in the complex structure (N32 and N55 among them)); assay: SPR; h4C1 and CD47-ECD proteins (WT, N32A, N55A); who was immobilised and the conditions are not given; conditions: both partners purified
T1 construct: CD47, human, extracellular domain; also called WT CD47-ECD; human CD47-ECD antigen
T1 sequence (Q08722 19-141): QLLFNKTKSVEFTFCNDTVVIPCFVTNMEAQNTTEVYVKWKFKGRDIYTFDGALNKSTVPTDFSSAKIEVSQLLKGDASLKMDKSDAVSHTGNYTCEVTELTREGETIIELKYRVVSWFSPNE

Sequence of human CD47 extracellular domain (CD47-ECD) (human) (Q08722 19-141): as above
Sequence of PD-L1 extracellular domain (PD-L1-ECD) (Q9NZQ7 19-238): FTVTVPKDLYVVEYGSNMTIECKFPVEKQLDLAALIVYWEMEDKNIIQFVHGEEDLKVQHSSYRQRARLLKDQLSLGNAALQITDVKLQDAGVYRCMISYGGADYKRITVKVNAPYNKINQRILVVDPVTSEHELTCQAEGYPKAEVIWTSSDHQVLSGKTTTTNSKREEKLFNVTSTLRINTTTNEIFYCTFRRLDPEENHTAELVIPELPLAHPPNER

| Kd [1] [nM] | Kd [2] [nM] | Kd [3] [nM] | Molecule |
| --- | --- | --- | --- |
| 0.74 | 17.4 |  | CD47/PD-L1 dual-targeting bispecific antibody (DVD-Ig format) (from UniProt P01861) |
|  |  | 0.85 | Humanized 4C1 (h4C1) monoclonal antibody (antibody, V domains shown, Humanised from the murine mAb m4C1 (raised in mice immunised with human CD47); also called h4C1 mAb) VH: QVQLVQSGAEVKKPGASVKVSCKASGYTFTSYVMHWVRQAPGQRLEWMGYINPYNDGTKYNEKFKGKATLTSDKSTSTAYMELSSLRSEDTAVYYCARTEGHFYVSWFAYWGQGTLVTVSS VL: DIQMTQSPSSLSASVGDRVTISCRTSQDISNYLNWYQQKPGKAPKLLIYYTSRLHSGVPSRFSGSGSGTDYTFTISSLQPEDIATYYCQQGNTLPFTFGQGTKLEIK |
